From paper PMC9482650, “Quantitative fragmentomics allow affinity mapping of interactomes” (Nature Communications, 2022)

Columns and labels:
Test in all cases: holdup assay
Parameters in all cases: key: below the threshold = too weak to quantify, mostly under pKd 3.1 to 4
DLG3_3, Q92796 = target: T1, DLG3_3, Q92796
T1 sequence (Q92796 374-475, limits assumed, looked up): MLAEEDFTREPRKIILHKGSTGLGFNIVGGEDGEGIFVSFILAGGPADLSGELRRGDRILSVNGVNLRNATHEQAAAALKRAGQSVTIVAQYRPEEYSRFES

SCRIB_3, Q14160 = target: SCRIB_3, Q14160
Chain of SCRIB_3, Q14160 (Q14160 999-1103): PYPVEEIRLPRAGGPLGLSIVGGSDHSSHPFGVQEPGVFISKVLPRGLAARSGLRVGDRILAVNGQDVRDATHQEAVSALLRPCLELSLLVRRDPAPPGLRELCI

RAPGEF6, Q8TEU7 = target: T2, RAPGEF6, Q8TEU7
T2 sequence (Q8TEU7 525-625, limits assumed, looked up): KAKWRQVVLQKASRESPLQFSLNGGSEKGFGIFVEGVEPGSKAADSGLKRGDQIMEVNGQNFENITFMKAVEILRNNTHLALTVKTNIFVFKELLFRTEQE

GRIP2_5, Q9C0E4 = target: GRIP2_5, Q9C0E4
Chain of GRIP2_5, Q9C0E4 (Q9C0E4 544-642): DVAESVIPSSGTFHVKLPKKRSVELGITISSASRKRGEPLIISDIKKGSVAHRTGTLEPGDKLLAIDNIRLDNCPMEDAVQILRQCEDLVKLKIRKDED

GRIP1_7, Q9Y3R0 = target: T3, GRIP1_7, Q9Y3R0
T3 sequence (Q9Y3R0 999-1096, limits assumed, looked up): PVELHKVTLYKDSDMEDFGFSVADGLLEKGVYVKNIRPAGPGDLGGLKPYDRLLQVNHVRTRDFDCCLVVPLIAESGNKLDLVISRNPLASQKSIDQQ

LIN7C, Q9NUP9 = target: T4, LIN7C, Q9NUP9
T4 sequence (Q9NUP9 88-185, limits assumed, looked up): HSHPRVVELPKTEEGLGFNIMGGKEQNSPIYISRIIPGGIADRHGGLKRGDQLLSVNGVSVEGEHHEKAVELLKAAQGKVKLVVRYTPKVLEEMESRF

DLG3_2, Q92796 = target: T5, DLG3_2, Q92796
T5 sequence (Q92796 221-321, limits assumed, looked up): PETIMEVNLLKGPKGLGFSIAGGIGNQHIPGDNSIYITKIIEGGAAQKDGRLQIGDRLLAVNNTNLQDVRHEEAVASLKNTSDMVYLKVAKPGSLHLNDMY

LNX2_3, Q8N448 = target: T6, LNX2_3, Q8N448
T6 sequence (Q8N448 463-564, limits assumed, looked up): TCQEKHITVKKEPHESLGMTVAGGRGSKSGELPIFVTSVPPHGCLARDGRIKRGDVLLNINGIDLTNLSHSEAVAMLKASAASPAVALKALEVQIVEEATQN

LNX2_2, Q8N448 = target: T7, LNX2_2, Q8N448
T7 sequence (Q8N448 334-432, limits assumed, looked up): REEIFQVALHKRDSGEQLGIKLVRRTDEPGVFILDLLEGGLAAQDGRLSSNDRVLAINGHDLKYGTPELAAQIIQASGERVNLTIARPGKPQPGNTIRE

TJP2_1, Q9UDY2 = target: TJP2_1, Q9UDY2
Chain of TJP2_1, Q9UDY2 (Q9UDY2 24-128): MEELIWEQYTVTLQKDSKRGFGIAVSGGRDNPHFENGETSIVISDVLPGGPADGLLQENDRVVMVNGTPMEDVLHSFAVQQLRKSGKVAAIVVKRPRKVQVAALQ

Inadl_9, Q8NI35 = target: Inadl_9, Q8NI35
Chain of Inadl_9, Q8NI35 (Q8NI35 1530-1615): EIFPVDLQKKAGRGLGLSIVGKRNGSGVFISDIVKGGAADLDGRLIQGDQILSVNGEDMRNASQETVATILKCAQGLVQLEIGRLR

MPP7, Q5T2T1 = target: T8, MPP7, Q5T2T1
T8 sequence (Q5T2T1 134-230, limits assumed, looked up): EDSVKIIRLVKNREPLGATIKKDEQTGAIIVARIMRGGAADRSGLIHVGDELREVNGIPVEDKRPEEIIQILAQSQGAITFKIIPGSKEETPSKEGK

Inadl_3, Q8NI35 = target: Inadl_3, Q8NI35
Chain of Inadl_3, Q8NI35 (Q8NI35 359-469): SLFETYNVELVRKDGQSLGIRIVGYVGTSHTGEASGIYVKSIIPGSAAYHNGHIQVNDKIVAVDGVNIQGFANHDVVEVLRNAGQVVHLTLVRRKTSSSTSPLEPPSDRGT

TX1BP3, O14907 = target: T9, TX1BP3, O14907
T9 sequence (O14907 10-122, limits assumed, looked up): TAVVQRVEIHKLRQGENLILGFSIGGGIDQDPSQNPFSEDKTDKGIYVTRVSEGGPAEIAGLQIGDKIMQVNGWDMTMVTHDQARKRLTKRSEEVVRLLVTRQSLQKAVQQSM

FRMPD2_3, Q68DX3 = target: FRMPD2_3, Q68DX3
Chain of FRMPD2_3, Q68DX3 (Q68DX3 1073-1166): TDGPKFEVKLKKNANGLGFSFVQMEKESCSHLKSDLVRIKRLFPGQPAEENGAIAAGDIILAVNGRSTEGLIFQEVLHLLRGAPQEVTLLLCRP

TJP1_3, Q07157 = target: TJP1_3, Q07157
Chain of TJP1_3, Q07157 (Q07157 416-512): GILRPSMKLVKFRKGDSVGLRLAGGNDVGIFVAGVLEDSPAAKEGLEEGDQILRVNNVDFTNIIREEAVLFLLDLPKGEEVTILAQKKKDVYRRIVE

GIPC2, Q8TF65 = target: GIPC2, Q8TF65
Chain of GIPC2, Q8TF65 (Q8TF65 112-203): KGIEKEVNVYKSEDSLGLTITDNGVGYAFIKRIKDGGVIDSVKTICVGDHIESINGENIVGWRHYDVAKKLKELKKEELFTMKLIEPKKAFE

FRMPD2_2, Q68DX3 = target: FRMPD2_2, Q68DX3
Chain of FRMPD2_2, Q68DX3 (Q68DX3 944-1038): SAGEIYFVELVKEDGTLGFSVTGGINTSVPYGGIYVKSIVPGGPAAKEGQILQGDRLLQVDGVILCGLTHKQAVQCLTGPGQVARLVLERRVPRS

DLG1_2, Q12959 = target: DLG1_2, Q12959
Chain of DLG1_2, Q12959 (Q12959 314-412): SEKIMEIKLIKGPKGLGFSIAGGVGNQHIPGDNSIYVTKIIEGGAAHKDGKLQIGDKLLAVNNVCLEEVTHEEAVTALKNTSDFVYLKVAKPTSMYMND

NHERF4_1, Q86UT5-2 = target: NHERF4_1, Q86UT5-2
Chain of NHERF4_1, Q86UT5-2 (Q86UT5 other isoform, or with tags, fused parts or gaps): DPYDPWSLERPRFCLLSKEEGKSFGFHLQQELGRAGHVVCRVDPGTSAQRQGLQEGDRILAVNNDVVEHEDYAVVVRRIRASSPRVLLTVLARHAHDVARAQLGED

Inadl_6, Q8NI35 = target: Inadl_6, Q8NI35
Chain of Inadl_6, Q8NI35 (Q8NI35 1058-1167): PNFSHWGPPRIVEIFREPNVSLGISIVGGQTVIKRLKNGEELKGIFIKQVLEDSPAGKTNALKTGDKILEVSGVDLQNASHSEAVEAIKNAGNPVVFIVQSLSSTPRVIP

LDB3, O75112 = target: LDB3, O75112
Chain of LDB3, O75112 (O75112 1-94): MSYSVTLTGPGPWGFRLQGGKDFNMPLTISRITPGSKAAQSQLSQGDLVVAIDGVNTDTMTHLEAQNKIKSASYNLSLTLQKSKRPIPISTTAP

PDZD2_2, O15018 = target: T10, PDZD2_2, O15018
T10 sequence (O15018 329-429, limits assumed, looked up): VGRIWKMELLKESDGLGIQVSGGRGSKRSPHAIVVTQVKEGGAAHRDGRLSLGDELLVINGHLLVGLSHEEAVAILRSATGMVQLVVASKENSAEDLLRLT

NHERF3_1, Q5T2W1 = target: T11, NHERF3_1, Q5T2W1
T11 sequence (Q5T2W1 4-100, limits assumed, looked up): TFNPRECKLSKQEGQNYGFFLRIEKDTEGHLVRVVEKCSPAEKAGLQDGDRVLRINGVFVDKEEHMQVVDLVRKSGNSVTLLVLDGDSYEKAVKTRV

CARD11, Q9BXL7 = target: T12, CARD11, Q9BXL7
T12 sequence (Q9BXL7 662-765, limits assumed, looked up): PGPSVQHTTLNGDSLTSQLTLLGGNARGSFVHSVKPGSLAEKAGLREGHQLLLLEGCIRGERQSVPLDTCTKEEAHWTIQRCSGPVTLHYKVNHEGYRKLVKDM

[1] = plain residues with an end cap or a label only (N-terminal biotin on a linker: ahx)
[2] = plain residues with an end cap or a label only (N-terminal biotin on a linker: ttds)

B1: CNKSR2, Q8WXI2 (peptide)
chain: HTHSYIETHV
- pKd (DLG3_3, Q92796; [1]): 4.01
- pKd (SCRIB_3, Q14160; [1]): 5.11
- pKd (RAPGEF6, Q8TEU7; [1]): below the threshold
- pKd (GRIP2_5, Q9C0E4; [1]): below the threshold
- pKd (GRIP1_7, Q9Y3R0; [1]): below the threshold
- pKd (LIN7C, Q9NUP9; [1]): 3.67
- pKd (DLG3_2, Q92796; [1]): 5.04
- pKd (LNX2_3, Q8N448; [1]): below the threshold
- pKd (LNX2_2, Q8N448; [1]): 3.99
- pKd (TJP2_1, Q9UDY2; [1]): 4.46
- pKd (Inadl_9, Q8NI35; [1]): 3.64
- pKd (MPP7, Q5T2T1; [1]): below the threshold
- pKd (Inadl_3, Q8NI35; [1]): 3.66
- pKd (TX1BP3, O14907; [1]): 5.47
- pKd (FRMPD2_3, Q68DX3; [1]): 3.87
- pKd (TJP1_3, Q07157; [1]): below the threshold
- pKd (GIPC2, Q8TF65; [1]): below the threshold
- pKd (FRMPD2_2, Q68DX3; [1]): 4.83
- pKd (DLG1_2, Q12959; [1]): 5.1
- pKd (NHERF4_1, Q86UT5-2; [1]): below the threshold
- pKd (Inadl_6, Q8NI35; [1]): 4.22
- pKd (LDB3, O75112; [1]): below the threshold
- pKd (PDZD2_2, O15018; [1]): 4.24
- pKd (NHERF3_1, Q5T2W1; [1]): 5.14
- pKd (CARD11, Q9BXL7; [1]): below the threshold

B2: LRP4, O75096 (peptide)
chain: ERKLSSESQV
- pKd (DLG3_3, Q92796; [2]): 3.51
- pKd (SCRIB_3, Q14160; [2]): 3.93
- pKd (RAPGEF6, Q8TEU7; [2]): below the threshold
- pKd (GRIP2_5, Q9C0E4; [2]): below the threshold
- pKd (GRIP1_7, Q9Y3R0; [2]): below the threshold
- pKd (LIN7C, Q9NUP9; [2]): below the threshold
- pKd (DLG3_2, Q92796; [2]): 4.6
- pKd (LNX2_3, Q8N448; [2]): below the threshold
- pKd (LNX2_2, Q8N448; [2]): below the threshold
- pKd (TJP2_1, Q9UDY2; [2]): below the threshold
- pKd (Inadl_9, Q8NI35; [2]): below the threshold
- pKd (MPP7, Q5T2T1; [2]): below the threshold
- pKd (Inadl_3, Q8NI35; [2]): below the threshold
- pKd (TX1BP3, O14907; [2]): 4.27
- pKd (FRMPD2_3, Q68DX3; [2]): below the threshold
- pKd (TJP1_3, Q07157; [2]): below the threshold
- pKd (GIPC2, Q8TF65; [2]): 4.22
- pKd (FRMPD2_2, Q68DX3; [2]): 3.48
- pKd (DLG1_2, Q12959; [2]): 4.75
- pKd (NHERF4_1, Q86UT5-2; [2]): below the threshold
- pKd (Inadl_6, Q8NI35; [2]): below the threshold
- pKd (LDB3, O75112; [2]): below the threshold
- pKd (PDZD2_2, O15018; [2]): 4.39
- pKd (NHERF3_1, Q5T2W1; [2]): below the threshold
- pKd (CARD11, Q9BXL7; [2]): below the threshold

B3: HPV67-E6, A4U7F2 (peptide)
chain: SRPQRTQTQV
- pKd (DLG3_3, Q92796; [2]): 4.3
- pKd (SCRIB_3, Q14160; [2]): 3.93
- pKd (RAPGEF6, Q8TEU7; [2]): below the threshold
- pKd (GRIP2_5, Q9C0E4; [2]): below the threshold
- pKd (GRIP1_7, Q9Y3R0; [2]): below the threshold
- pKd (LIN7C, Q9NUP9; [2]): below the threshold
- pKd (DLG3_2, Q92796; [2]): 5.06
- pKd (LNX2_3, Q8N448; [2]): below the threshold
- pKd (LNX2_2, Q8N448; [2]): 3.6
- pKd (TJP2_1, Q9UDY2; [2]): 3.86
- pKd (Inadl_9, Q8NI35; [2]): below the threshold
- pKd (MPP7, Q5T2T1; [2]): below the threshold
- pKd (Inadl_3, Q8NI35; [2]): below the threshold
- pKd (TX1BP3, O14907; [2]): 4.03
- pKd (FRMPD2_3, Q68DX3; [2]): below the threshold
- pKd (TJP1_3, Q07157; [2]): below the threshold
- pKd (GIPC2, Q8TF65; [2]): below the threshold
- pKd (FRMPD2_2, Q68DX3; [2]): 3.53
- pKd (DLG1_2, Q12959; [2]): 5.01
- pKd (NHERF4_1, Q86UT5-2; [2]): below the threshold
- pKd (Inadl_6, Q8NI35; [2]): below the threshold
- pKd (LDB3, O75112; [2]): below the threshold
- pKd (PDZD2_2, O15018; [2]): 3.77
- pKd (NHERF3_1, Q5T2W1; [2]): 3.98
- pKd (CARD11, Q9BXL7; [2]): below the threshold
